In this experiment the target is UB (ubiquitin). Put plainly: SEC-MALS. The note with it: reference: unphosphorylated PARKIN; sites S65.

With PARKIN (from UniProt O60260) p-PARKIN, the “other: mass increase on p-UB addition” value is “same; reference ~7”.

For the origin of these results see PMC4254048.
